Results as given in patent US20230192881A1 (EDESA BIOTECH RESEARCH, published 2023).
Substitutions are numbered along the chain they refer to. Where “and” joins values, the source holds several entries; their conditions need not be identical. Identical values can stand only once. Each block holds one binder with its values, some of them ahead of it.

How the values were obtained:
[1] = biological target: T1, mouse FcRn (mouse, UniProt Q61559 22-297; P01887 21-119, limits assumed); assay: method not stated
T1 construct: also called mFcRn
T1 sequence (looked up) 1: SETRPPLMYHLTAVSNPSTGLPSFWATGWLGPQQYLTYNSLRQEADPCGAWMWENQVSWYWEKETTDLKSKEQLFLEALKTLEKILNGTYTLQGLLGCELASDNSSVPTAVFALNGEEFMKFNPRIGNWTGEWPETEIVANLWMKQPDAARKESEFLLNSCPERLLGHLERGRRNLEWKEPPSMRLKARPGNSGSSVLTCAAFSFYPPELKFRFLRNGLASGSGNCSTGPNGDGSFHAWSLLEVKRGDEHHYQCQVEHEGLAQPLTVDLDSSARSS
T1 sequence (looked up) 2: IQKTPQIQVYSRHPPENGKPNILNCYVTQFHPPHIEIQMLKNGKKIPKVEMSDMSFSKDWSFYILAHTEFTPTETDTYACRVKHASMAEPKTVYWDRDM

[2] = biological target: T2, mouse FcγRIII (mouse, UniProt P08508 31-215, limits assumed); assay: method not stated
T2 construct: also called mFcγRIII
T2 sequence (looked up): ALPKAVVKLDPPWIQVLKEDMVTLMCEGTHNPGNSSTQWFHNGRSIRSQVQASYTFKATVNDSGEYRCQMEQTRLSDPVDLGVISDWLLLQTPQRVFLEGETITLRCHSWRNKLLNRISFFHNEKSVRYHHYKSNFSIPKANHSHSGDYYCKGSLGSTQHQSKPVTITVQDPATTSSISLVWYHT

[3] = biological target: T3, mouse FcγRI (mouse, UniProt P26151 25-297, limits assumed); assay: method not stated
T3 construct: also called mFcγRI; mouse FcyRI
T3 sequence (looked up): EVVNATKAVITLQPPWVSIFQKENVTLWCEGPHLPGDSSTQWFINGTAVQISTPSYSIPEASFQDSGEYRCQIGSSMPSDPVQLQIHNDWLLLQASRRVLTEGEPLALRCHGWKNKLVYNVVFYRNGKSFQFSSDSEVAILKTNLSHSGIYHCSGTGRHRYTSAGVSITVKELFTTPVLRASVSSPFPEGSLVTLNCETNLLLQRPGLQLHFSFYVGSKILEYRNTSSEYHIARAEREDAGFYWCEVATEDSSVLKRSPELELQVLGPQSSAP

[4] = biological target: T4, mouse FcγRIV (mouse, UniProt A0A0B4J1G0 21-203); assay: method not stated
T4 construct: also called mFcγRIV
T4 sequence: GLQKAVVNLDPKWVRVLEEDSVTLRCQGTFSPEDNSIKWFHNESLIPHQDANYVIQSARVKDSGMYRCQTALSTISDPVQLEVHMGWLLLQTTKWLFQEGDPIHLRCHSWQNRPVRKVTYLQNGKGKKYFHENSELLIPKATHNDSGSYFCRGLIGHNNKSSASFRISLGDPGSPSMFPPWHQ

[5] = biological target: T5, mouse FcγRII (mouse, UniProt P08101 30-210, limits assumed); assay: method not stated
T5 construct: also called mFcγRII; mouse FcyRII
T5 sequence (looked up): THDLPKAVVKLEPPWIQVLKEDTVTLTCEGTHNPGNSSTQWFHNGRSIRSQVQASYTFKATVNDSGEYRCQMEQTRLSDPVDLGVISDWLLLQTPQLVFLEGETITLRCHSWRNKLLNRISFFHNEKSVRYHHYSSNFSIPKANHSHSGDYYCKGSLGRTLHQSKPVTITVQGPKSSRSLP

[6] = biological target: T6, mouse TLR4 (mouse, UniProt Q9QUK6 26-629, limits assumed); assay: cell-based or functional assay
T6 sequence (looked up): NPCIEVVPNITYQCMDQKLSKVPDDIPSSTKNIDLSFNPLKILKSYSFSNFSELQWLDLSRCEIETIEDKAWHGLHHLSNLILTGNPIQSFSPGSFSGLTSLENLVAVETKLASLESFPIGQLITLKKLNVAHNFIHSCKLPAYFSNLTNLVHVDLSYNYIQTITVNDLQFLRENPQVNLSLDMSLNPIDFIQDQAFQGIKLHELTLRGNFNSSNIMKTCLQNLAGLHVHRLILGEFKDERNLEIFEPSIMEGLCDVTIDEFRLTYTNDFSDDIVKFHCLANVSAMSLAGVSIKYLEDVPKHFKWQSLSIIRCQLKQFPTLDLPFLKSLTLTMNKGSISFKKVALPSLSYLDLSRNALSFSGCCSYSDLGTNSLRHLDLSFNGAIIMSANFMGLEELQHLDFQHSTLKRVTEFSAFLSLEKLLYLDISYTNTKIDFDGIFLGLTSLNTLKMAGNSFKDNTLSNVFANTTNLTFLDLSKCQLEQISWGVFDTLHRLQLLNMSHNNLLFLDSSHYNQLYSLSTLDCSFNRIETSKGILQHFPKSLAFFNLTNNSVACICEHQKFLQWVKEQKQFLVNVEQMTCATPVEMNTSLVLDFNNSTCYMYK

[7] = biological target: T6, mouse TLR4; assay: method not stated, average Kd
[8] = biological target: T7, human TLR4 (human, UniProt O00206 24-839); assay: cell-based or functional assay
[9] = biological target: T7, human TLR4; assay: KinExA combined with ELISA, average Kd
[10] = biological target: T7, human TLR4; assay: cell-based or functional assay; remark: listed apart in the source
[11] = biological target: T8, human FcγRIIa 131H (human, UniProt P12318 36-218, limits assumed); assay: surface plasmon resonance
T8 sequence (looked up): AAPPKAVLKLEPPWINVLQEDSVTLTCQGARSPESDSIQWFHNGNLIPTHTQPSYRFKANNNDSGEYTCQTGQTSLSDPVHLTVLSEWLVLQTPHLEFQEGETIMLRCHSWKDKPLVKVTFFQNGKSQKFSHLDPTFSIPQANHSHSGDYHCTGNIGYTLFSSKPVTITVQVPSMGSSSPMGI

[12] = biological target: T9, human FcγRIIa 131R (human, UniProt P12318 36-218, limits assumed); assay: surface plasmon resonance
T9 sequence (looked up): T8 sequence (looked up) with H132R

[13] = biological target: T10, human FcγRIIb (human, UniProt P31994 43-217, limits assumed); assay: surface plasmon resonance
T10 construct: also called CD32b
T10 sequence (looked up): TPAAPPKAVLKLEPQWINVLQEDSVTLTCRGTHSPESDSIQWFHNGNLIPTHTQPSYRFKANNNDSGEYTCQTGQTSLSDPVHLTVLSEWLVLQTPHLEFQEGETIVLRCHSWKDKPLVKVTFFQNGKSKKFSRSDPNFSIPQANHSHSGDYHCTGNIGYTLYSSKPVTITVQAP

[14] = biological target: T11, human FcγRI (human, UniProt P12314 16-288, limits assumed); assay: surface plasmon resonance
T11 construct: also called CD64; FcyRI

[15] = biological target: T9, human FcγRIIa 131R; assay: surface plasmon resonance (refers to Table 9)
[16] = biological target: T7, human TLR4; assay: KinExA

T7 sequence (O00206 24-839 limits assumed): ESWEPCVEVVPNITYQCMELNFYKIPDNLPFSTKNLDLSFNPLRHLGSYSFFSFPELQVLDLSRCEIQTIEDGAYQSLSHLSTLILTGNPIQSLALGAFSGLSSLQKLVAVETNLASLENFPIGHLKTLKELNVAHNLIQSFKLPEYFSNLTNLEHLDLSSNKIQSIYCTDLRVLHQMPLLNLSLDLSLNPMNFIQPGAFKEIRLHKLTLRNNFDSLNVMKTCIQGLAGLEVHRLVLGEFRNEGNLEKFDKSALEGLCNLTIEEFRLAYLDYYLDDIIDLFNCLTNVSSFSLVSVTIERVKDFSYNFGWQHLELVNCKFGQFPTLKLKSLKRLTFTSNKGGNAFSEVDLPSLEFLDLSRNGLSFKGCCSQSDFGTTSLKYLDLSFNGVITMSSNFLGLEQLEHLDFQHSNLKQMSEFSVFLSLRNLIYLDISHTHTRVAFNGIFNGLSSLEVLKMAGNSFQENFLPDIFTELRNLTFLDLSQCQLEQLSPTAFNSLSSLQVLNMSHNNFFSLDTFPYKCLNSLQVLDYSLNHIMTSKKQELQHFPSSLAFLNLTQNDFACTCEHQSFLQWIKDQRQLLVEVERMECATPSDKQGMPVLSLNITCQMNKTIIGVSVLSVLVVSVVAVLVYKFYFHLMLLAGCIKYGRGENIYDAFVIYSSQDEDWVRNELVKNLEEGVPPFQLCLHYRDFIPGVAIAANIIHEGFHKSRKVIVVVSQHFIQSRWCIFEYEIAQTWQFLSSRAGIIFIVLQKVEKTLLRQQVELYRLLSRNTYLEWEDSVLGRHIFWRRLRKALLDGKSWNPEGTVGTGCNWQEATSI
T11 sequence (P12314 16-288 limits assumed): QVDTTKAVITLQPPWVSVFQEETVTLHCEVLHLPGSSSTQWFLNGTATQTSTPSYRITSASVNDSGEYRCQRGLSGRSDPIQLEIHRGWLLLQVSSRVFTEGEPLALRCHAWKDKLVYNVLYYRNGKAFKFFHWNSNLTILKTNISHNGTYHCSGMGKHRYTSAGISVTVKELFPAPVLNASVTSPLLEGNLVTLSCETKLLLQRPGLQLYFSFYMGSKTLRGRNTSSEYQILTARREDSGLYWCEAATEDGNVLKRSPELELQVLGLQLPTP

Kd [1]: 2.93 nM
Kd [2]: 505 nM
Kd [3]: 50.8 nM
Kd [4]: 113 nM
Kd [5]: 3260 nM
IC50, Blockade of LPS induced TLR4 signalling, mouse whole blood [6]: 1.16 nM and 173 ng/mL
Kd [7]: 0.027 nM
B1: 5E3 (antibody, mouse IgG2a, kappa)
heavy: QIQLVQSGPELKKPGESVKISCKASGYTFTDYVMYWVKQAPGKGLKWMGWINTNTGKPTYADDFKGRFVFSLEASASTANLQISNLKNEDTATYFCTRGNYPGLRVMDAWGQGASVTVSSAKTTAPSVYPLAPVCGDTTGSSVTLGCLVKGYFPEPVTLTWNSGSLSSGVHTFPAVLQSDLYTLSSSVTVTSSTWPSQSITCNVAHPASSTKVDKKIEPRGPTIKPCPPCKCPAPNLLGGPSVFIFPPKIKDVLMISLSPIVTCVVVDVSEDDPDVQISWFVNNVEVHTAQTQTHREDYNSTLRVVSALPIQHQDWMSGKEFKCKVNNKDLPAPIERTISKPKGSVRAPQVYVLPPPEEEMTKKQVTLTCMVTDFMPEDIYVEWTNNGKTELNYKNTEPVLDSDGSYFMYSKLRVEKKNWVERNSYSCSVVHEGLHNHHTTKSFSRTPGK
light: DIQMTQSPSSMSVSLGDTVTITCRASQDVGIYVNWFQQKPGKSPRRLIFRATNLADGVPSRFSGSRSGSDYSLTISSLGSEDVAGYHCLQYDEYPLTFGSGTKLEIKRADAAPTVSIFPPSSEQLTSGGASVVCFLNNFYPKDINVKWKIDGSERQNGVLNSWTDQDSKDSTYSMSSTLTLTKDEYERHNSYTCEATHKTSTSPIVKSFNRNEC
notes: Chimeric anti-mouse TLR4 mAb: rat variable regions grafted onto a mouse IgG2a kappa Fc

IC50, LPS mediated cytokine production in human primary macrophages [8]: 0.0104 nM
IC50, LPS-induced IL-6 release in THP1 cells (FcγRIIa 131HH) [8]: 0.0027 nM
IC50, LPS-induced IL-6 release in U937 cells (FcγRIIa 131RR) [8]: 0.002 nM
IC50, LPS-induced IL-6 release in human whole blood, FcγRIIa 131HH donors [8]: 2.19 nM
IC50, LPS-induced IL-6 release in human whole blood, FcγRIIa 131RH donors [8]: 0.223 nM
IC50, LPS-induced IL-6 release in human whole blood, FcγRIIa 131RR donors [8]: 0.128 nM
IC50, Tenascin-C mediated cytokine production in human primary macrophages [8]: 0.022 nM
IC50, nickel mediated cytokine production in human primary macrophages [8]: 0.015 nM
Kd [9]: 0.139 nM
IC50, Blockade of LPS induced TLR4 signalling, human whole blood (FcγRIIaHH) [10]: 2.19 nM and 324 ng/mL
Kd [11]: 311 nM
Kd [12]: 151 nM
Kd [13]: 870 nM
Kd [14]: 47.3 nM
fold higher affinity than to the 131H variant [15]: 2 fold
B2: NI-0101 (antibody, human IgG1, kappa)
heavy: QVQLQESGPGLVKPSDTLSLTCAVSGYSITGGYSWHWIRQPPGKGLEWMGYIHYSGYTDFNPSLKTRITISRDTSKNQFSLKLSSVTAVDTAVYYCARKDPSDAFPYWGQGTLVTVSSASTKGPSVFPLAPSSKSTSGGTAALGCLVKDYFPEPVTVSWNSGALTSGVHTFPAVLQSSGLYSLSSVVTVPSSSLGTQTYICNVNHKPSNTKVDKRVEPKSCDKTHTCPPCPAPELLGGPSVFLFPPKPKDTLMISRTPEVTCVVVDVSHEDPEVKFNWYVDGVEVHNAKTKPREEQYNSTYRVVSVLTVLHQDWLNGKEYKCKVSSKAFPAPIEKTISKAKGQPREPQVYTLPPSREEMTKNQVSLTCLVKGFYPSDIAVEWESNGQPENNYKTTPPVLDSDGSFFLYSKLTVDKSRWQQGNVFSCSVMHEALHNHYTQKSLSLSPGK
light: EIVLTQSPDFQSVTPKEKVTITCRASQSISDHLHWYQQKPDQSPKLLIKYASHAISGVPSRFSGSGSGTDFTLTINSLEAEDAATYYCQQGHSFPLTFGGGTKVEIKRTVAAPSVFIFPPSDEQLKSGTASVVCLLNNFYPREAKVQWKVDNALQSGNSQESVTEQDSKDSTYSLSSTLTLSKADYEKHKVYACEVTHQGLSSPVTKSFNRGEC

Kd [16]: 0.139 nM
B3: Hu 15C1 (antibody, V domains shown)
VH: QVQLQESGPGLVKPSDTLSLTCAVSGYSITGGYSWHWIRQPPGKGLEWMGYIHYSGYTDFNPSLKTRITISRDTSKNQFSLKLSSVTAVDTAVYYCARKDPSDAFPYWGQGTLVTVSS
VL: EIVLTQSPDFQSVTPKEKVTITCRASQSISDHLHWYQQKPDQSPKLLIKYASHAISGVPSRFSGSGSGTDFTLTINSLEAEDAATYYCQQGHSFPLTFGGGTKVEIK
notes: the rest is a non-mutated human IgG1 Fc
